The data set deals with the molecule itself. In words: SEC; Superose 6 HR 10/300, 50 mM Tris-HCl pH 7.4, 150 mM NaCl, 1 mM DTT; purified proteins run alone or as a complex formed from equimolar amounts. In general terms: SEC sorts molecules by how far they enter the pores of the column.

B1: rabbit reticulocyte lysate Hsp90 (natural protein)
chain: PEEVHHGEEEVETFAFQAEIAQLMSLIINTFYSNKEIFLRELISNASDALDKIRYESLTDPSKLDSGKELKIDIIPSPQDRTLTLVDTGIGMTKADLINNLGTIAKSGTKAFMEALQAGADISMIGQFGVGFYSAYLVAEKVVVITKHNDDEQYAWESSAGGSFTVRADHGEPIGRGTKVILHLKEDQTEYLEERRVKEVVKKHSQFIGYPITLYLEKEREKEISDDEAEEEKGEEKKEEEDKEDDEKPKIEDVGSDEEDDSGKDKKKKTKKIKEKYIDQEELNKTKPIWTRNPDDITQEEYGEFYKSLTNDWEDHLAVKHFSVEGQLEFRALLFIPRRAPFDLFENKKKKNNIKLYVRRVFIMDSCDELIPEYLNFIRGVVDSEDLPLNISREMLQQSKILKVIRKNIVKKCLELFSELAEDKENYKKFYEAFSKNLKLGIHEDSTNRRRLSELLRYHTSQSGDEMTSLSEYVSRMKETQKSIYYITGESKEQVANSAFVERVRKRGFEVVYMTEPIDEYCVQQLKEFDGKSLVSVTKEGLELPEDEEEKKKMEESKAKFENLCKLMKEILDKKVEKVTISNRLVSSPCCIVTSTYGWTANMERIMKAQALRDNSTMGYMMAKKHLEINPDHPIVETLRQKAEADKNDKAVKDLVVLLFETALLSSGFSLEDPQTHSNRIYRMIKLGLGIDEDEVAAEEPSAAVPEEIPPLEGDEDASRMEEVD
On to B1, for which the stoichiometry N (usually the number of molecules, sites or subunits per partner or assembly) stood at 2.

For the origin of these results see article PMC2377097, “Unc45b Forms a Cytosolic Complex with Hsp90 and Targets the Unfolded Myosin Motor Domain” (PLoS ONE, 2008).
